This is an account of results in the supplement of paper PMC9170038.

The data set relates to K4 kissing-loop RNA reporter. Kind of data set: apparent KD of K4 kissing-loop reporter; higher = weaker reporter binding. The following applies: Eterna round: R107. As to the method: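 RNA-MaP round R107: designed RNA switches with theophylline, tryptophan, arginine or FMN aptamers are transcribed on-chip within common flanks. They are titrated with a labelled K4 kissing-loop RNA reporter in RNA-MaP buffer (100 mM Tris pH 7.5, 80 mM KCl, 4 mM MgCl2), without ligand or with the indicated ligand. Median apparent KD per design.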

Where [1] appears, read: input ligand: theophylline 20 uM.
Where [2] appears, read: input ligand: tryptophan 2.4 mM.
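Note: bound reporter read as fluorescence of individual clusters on recovered sequencing chips by microscopy, with normalized cluster intensities fitted with a binding model.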

“GAACGGCGGGCGGCCGCCACUGGUAUACGAGUGAUGUUCGGAUAUACGUGAUGUAAGGUAAUUAUCAGGACCGGGUCAGAGCCGG [#16 K4 Tryptophan B Same State]”: the “apparent KD of K4 kissing-loop reporter” value by setting is: (input ligand: FMN 200 uM) 394 nM; (input ligand: arginine 13.2 mM) 183 nM; (input ligand: none) 303 nM; under setting [1], 341 nM; under setting [2], 167 nM.
For “GAAGGUCAAAGACCUUCGUGCACACCUGAUACCAGUCGCGAAAGCGACCCUUGGCAGCAGGGCAGUGAUGUUGCCAGUGCACAAA [Omei KL Theo A SS A v5]”, in that order: 194 nM, 176 nM, 191 nM, 164 nM and 159 nM.
For “GAAGUACAGGCGGCCGCCACUAGUGAUGUUAGUGAUAAAAGAUAUAGUAAAUAUCGGCAUGUAGAUAGGACCGGGCCUGAUGGAG [ggbgmullin]”, in that order: 311 nM, 220 nM, 256 nM, 236 nM and 226 nM.
“GAAUGAAAUAUCUGGCCCUAUCAGAAUUGGAAGGAUAUGACGGUCAUCAGAAGGUCCAACUCGUAGUGAUGUUGCGGGUUUUAAA [theeternabot_exclusion_KL_FMN_A_21]”: the “apparent KD of K4 kissing-loop reporter” value (input ligand: FMN 200 uM) amounted to 91.2 nM; the “apparent KD of K4 kissing-loop reporter” value (input ligand: arginine 13.2 mM) was 46.3 nM; the “apparent KD of K4 kissing-loop reporter” value (input ligand: none) came out at 41.4 nM; the “apparent KD of K4 kissing-loop reporter” value under setting [1] is 42.8 nM; the “apparent KD of K4 kissing-loop reporter” value under setting [2] is 36.2 nM.
For “GACAUCUAUCGCCGAUAGUGUUUAUCUUGGGAGGAUAUGUCAGCGGACAGAAGGCCCAGUGAUGUUGGGUAGAUGACCGUUGCUU [Edbiza]”, in that order: 242 nM, 114 nM, 135 nM, 127 nM and 120 nM.
For “GACGGGCAGUGAUGUUGCCGGUCUCUUGGACGAGGACCGGUACGGCCGCCACUCGAUCUGAUGCGAGAAUUGUAUCUUUUAAUAA [Tegesosoat]”, in that order: 250 nM, 177 nM, 242 nM, 346 nM and 347 nM.
For “GACUACCGGGCGGCCGCCACUGGGCUCCGAGUGAUGUUCGGAAAGACUCAUACACUGCUGUCAGACAGGACCGGGCCAAGGCGCA [theeternabot_sameState_KL_Trp_B_5]”, in that order: 145 nM, 170 nM, 172 nM, 201 nM and 151 nM.
Take “GAGAACUCUUACGAUACCAGCCGGAGUGAUGUUCCGCGCUUGGACGUAGUAACCCGCACCGGCCCUUGGCAGCGUGGAUCCUAUG [Bibiinor]”: the “apparent KD of K4 kissing-loop reporter” value by setting is: (input ligand: FMN 200 uM) 91.1 nM; (input ligand: arginine 13.2 mM) 81.2 nM; (input ligand: none) 86.1 nM; under setting [1], 86.8 nM; under setting [2], 80.5 nM.
For “GAGAAUAACGGAAGGAGCGAGUAAUGGAGUGAUGUUCCAAUCAAUAAAACACAAUAAAAUACUCAGGUAGGUCGCCGUAGUAGUU [Exclusion Argiie B GF 12]”, in that order: 244 nM, 339 nM, 323 nM, 330 nM and 215 nM.
For the sequence “GAGAUAGCGACGGCCGCCACUAGUGAUGUUAGUGCGGGUAGAUAGAUACUUGAACAGAAAUGACGUAGGACCGGGUCAGAUAGAG [#02 K4 Tryptophan B Exclusion]”, the “apparent KD of K4 kissing-loop reporter” value (input ligand: FMN 200 uM) came to 162 nM; the “apparent KD of K4 kissing-loop reporter” value (input ligand: arginine 13.2 mM) is 94.5 nM; the “apparent KD of K4 kissing-loop reporter” value (input ligand: none) came out at 125 nM; the “apparent KD of K4 kissing-loop reporter” value under setting [1] was found to be 140 nM; the “apparent KD of K4 kissing-loop reporter” value under setting [2] stood at 149 nM.
For “GAGCCAGAAGUUGCUGCGGGUUUCAGAGAUACCAGCCGUAUUGUAGGCCCUUGGCAGCUCGAGUGAUGUUCGAGCCGCUUCUAGC [Inma]”, in that order: 128 nM, 95.4 nM, 120 nM, 115 nM and 114 nM.
For “GAGGCCAAACGGAGUGAUGUUUCGUAUGAUACCAGCAGCGAAAGCUGCCCUUGGCAGCAUGCCACGGCCUCGGCAGGAAACUGCC”, in that order: 401 nM, 322 nM, 358 nM, 371 nM and 339 nM.
In the case of “GAGGUACAGGCGGCCGCCACUAGUGAUGUUAGUGAUAAAAGAUAUAGUAAAUAUCGGCAUGUAGAUAGGACCGGGCCUGAUGGAG [ptvcmullin]”, the “apparent KD of K4 kissing-loop reporter” value (input ligand: FMN 200 uM) is 234 nM; the “apparent KD of K4 kissing-loop reporter” value (input ligand: arginine 13.2 mM) was 214 nM; the “apparent KD of K4 kissing-loop reporter” value (input ligand: none) amounted to 234 nM; the “apparent KD of K4 kissing-loop reporter” value under setting [1] came to 234 nM; the “apparent KD of K4 kissing-loop reporter” value under setting [2] was found to be 209 nM.
Turning to “GAGGUACAGGCGGCCGCCACUAGUGAUGUUAGUGAUAGAAGAUAUAGUAAAUAUCGGCAUUUAGAUAGGACCGGGCCUGGUGGUG [ffdfcmullin]”, the “apparent KD of K4 kissing-loop reporter” value runs as follows: (input ligand: FMN 200 uM) 296 nM; (input ligand: arginine 13.2 mM) 242 nM; (input ligand: none) 271 nM; under setting [1], 286 nM; under setting [2], 275 nM.
In the case of “GAGUUUCGUAAAGGAUAUUCUAGCUAAAGCCAUUAGUGAUGUUGAUGUACGGACGGAAGCCUGGCAGAAGAAGGUUAACAGGAUU [theeternabot_sameState_KL_FMN_B_24]”, the “apparent KD of K4 kissing-loop reporter” value runs as follows: (input ligand: FMN 200 uM) 708 nM; (input ligand: arginine 13.2 mM) 326 nM; (input ligand: none) 410 nM; under setting [1], 420 nM; under setting [2], 312 nM.
For “GAUACGUCAGUGAUGUUGAUGUAUUACACAGAGGAUAUCGUAAUGACGAGAAGGCUGAGCCAUCUAGAGAUACGUAAGACGUAUC [FMN A SS t5]”, in that order: 154 nM, 196 nM, 184 nM, 188 nM and 205 nM.
For “GAUCUAUGUCCCGAUACCAGCUCAGAAGCUAGGGAGUGAUGUUCUCGGAGGUUAUCACUGAGCCCUUGGCAGCGGAACGUGACGA [theeternabot_sameState_KL_Theo_B_26]”, in that order: 227 nM, 182 nM, 239 nM, 230 nM and 218 nM.
For “GAUGAUCGCGCGGCCGCCACUGGUCAGUGAUGUUGACAUUAAGGCGCCGAGUAGUAACGGCGCCACAGGACCGGGCGCGAUGUAG [First Shot]”, in that order: 135 nM, 155 nM, 156 nM, 126 nM and 176 nM.
Consider “GAUGCAUAUUCCUGGAGGAAGAUGGUUAAGAAGGAUAUCAAAGCCGUGAGAAGGUCUAAACCUAAUAGUCGAGUGAUGUUCGACC [theeternabot_sameState_KL_FMN_A_35]”, for which the “apparent KD of K4 kissing-loop reporter” value (input ligand: FMN 200 uM) turned out to be 231 nM; the “apparent KD of K4 kissing-loop reporter” value (input ligand: arginine 13.2 mM) turned out to be 309 nM; the “apparent KD of K4 kissing-loop reporter” value (input ligand: none) came out at 356 nM; the “apparent KD of K4 kissing-loop reporter” value under setting [1] stood at 428 nM; the “apparent KD of K4 kissing-loop reporter” value under setting [2] amounted to 278 nM.
For “GAUGUCUAGAGAUCAUCUAGACACCUAGAUACCAGCAGAUAUAUCUGCCCUUGGCAGCUAGAACCAGUGAUGUUGGUAUAUGCUC [Theo A SS t3]”, in that order: 259 nM, 256 nM, 307 nM, 360 nM and 229 nM.
For “GAUUCAGUGAUGUUGGAAGGCGAGCGGGAUACCAGCCGAGACUCAGGCCCUUGGCAGCCCACAUAUCCCAGGUAGAUAGUCGCUC [Same State - Theophylline A (Freestyle 10)]”, in that order: 343 nM, 266 nM, 325 nM, 383 nM and 265 nM.
In the case of “GAUUUAGAGGCGGCCGCCACUAGUGAUGUUAGUGAUGUUUGAUACUGAAUAUAUCGGCGUGUAGAUAGGACCGGGCCAGAUGGAG [zwqqmullin]”, the “apparent KD of K4 kissing-loop reporter” value runs as follows: (input ligand: FMN 200 uM) 221 nM; (input ligand: arginine 13.2 mM) 179 nM; (input ligand: none) 218 nM; under setting [1], 211 nM; under setting [2], 203 nM.
